The data set is described as follows: yeast display, Sf9 membrane polyspecificity reagent, FACS + sequencing; frameworks hold sequencing errors. The method, boiled down: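 Nanobodies came from a synthetic yeast display library in Saccharomyces cerevisiae BJ5465, induced with galactose for 36–48 hours and stained for 1 hour at 4 °C with 10% biotinylated, detergent-solubilized Sf9 membrane reagent. Cells were enriched on streptavidin microbeads and then FACS-sorted, with low and high (top ~1%) gates set on anti-HA fluorescence for expression and streptavidin fluorescence for reagent binding. Each polyreactivity label reflects the gate a clone came from. Genes were amplified by colony PCR, sequenced by MiSeq 2 × 250 and filtered by CDR length.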
Consider “QVQLVESGGGLVQAGGSLRLSCAASGSTFQYNVMGWYRQAPGKERELVATISYSSGRTYYADSVKGRFTISRDNAKNTVYLQMNSLKPEDTAVYYCAAAVRLYFWTSAYKYGYWGQGTQVTVSS”, for which the “polyreactivity (PSR sort gate)” value is “high polyreactivity”.

Take “QVQVVESGGGLVQAGGSLRLSCAASGRIFPYYTMGWYRQAPGKERDLVAAISRRGSSTYYADSVKGRFTISRDNAKNTVYLQMNSLKPEDTAVYYCAADRGGYTRTGEYDYWGQCTQVTVSS”: the “polyreactivity (PSR sort gate)” value is recorded as “high polyreactivity”.

With “QVQLVESGGGLVQAGGSLRLTCAPSGRIFTRNTMGSYRQAPGKERELVAAISTGASTYYADSVKGRFTISRDNATNSVYLQMNSLKPEVTAVYYCATRGYARYWGLGTQVTVSS”, the “polyreactivity (PSR sort gate)” value was “low polyreactivity”.

Consider “QVQLVESGGGLVQAGGSLRLSCAASGRIFPYYTMGWYRPAPGKERELVAAISRRGSSTYYADSVKGRFTISRDNAKNTVYLQMNSLKPEDTAVYFCAADRGGYTRTGEYDYWGQGTQVTVSS”, for which the “polyreactivity (PSR sort gate)” value is listed as “high polyreactivity”.

For “QVQLVESGGGLVQAGGSLRLSCAATGITFYINAMAWYIQAPGKESEFVAAIDFNTGDTYYADSVKGRFTISRDTSKNTVYLEMNRLKPEDTAVYYCAADVGYWYGYYYIYDFWAQGTQVTVSS”, the “polyreactivity (PSR sort gate)” value is listed as “high polyreactivity”.

As for “QVQLVESGGGLVQAGGSLRLSCAASGLISSINAMGWYRQAPGKERELVATITSGGSTYYADSVKGRFTISRDNAKNTVYLQMNSLKPEDTAVYYCAARSSVRAYYSWGHGTQVTVSS”, the “polyreactivity (PSR sort gate)” value is “high polyreactivity”.

On to “QVQLVESGGGLVQAGGSLRLSCAASGSTFRVNAMGWYRQAPGKERELVAAIRSSGGTTYYADSVQGRFTISRDNAKNTVYLQMNSLKPEDTAVYYCAAEGYRSWRGLRSRYYYWGQGTQVTVSS”, for which the “polyreactivity (PSR sort gate)” value is “high polyreactivity”.

For “QVQLVESGGGLVQAGGSLRLSCAASGNIIQYYAMGWYRQAPGKERELVADIDSSGASKYYADSVKGRFTISRDNAKNTVYLQMNSLKPEVTAVYYCAAEFHWWYAGYDYGYWGQGTQVTVSS”, the “polyreactivity (PSR sort gate)” value was “low polyreactivity”.

With “QVQLVESGGGLVQAGGSLRLSCAASGFTFASYAMGWYRQAPAKEREFVAAITSRGGNTYYADSVKGRFTISRDNAKNTVYLQMNSLKPEDTAVYYCAAKSTYVVSKMNYWGQGTQVTVSS”, the “polyreactivity (PSR sort gate)” value is reported as “high polyreactivity”.

In the case of “QVHLVESGGSLVQAGGSLRLSCAASGFIFSWYAMGWYRQAPGKERELLAAISHEGGYTYYADSVKGRFTISRDNSKNNVYLQMYSLKPEDTAVYYCAPAFRAAGRSVRYYWGHGTQVTVSS”, the “polyreactivity (PSR sort gate)” value is on record as “high polyreactivity”.

As to “QVQLVESGGGLVQAGGSLRLSCAASGSTVKRNAMGWYRQAPGKERELVAAITQSGGSTYYADSVKGRFTISRHNAKNTVYLQMNSLKPEDTAVYYCAASDFRGRRYDYWGQGTQVTVSS”, the “polyreactivity (PSR sort gate)” value is on record as “high polyreactivity”.

Turning to “QVQLVESGGGLVQAGGSLRLSCASSGSIFDFNAMGWYRQAPGKERELVATIRYSGGSTYYADSVKGRFTISRDNAKNTVYLQMNSLKPVDTAVYYCAADPDWTHWFAYYYHYGYWGQGTQVTVSS”, the “polyreactivity (PSR sort gate)” value is “low polyreactivity”.

For “QVQLVESGGGLVQAGGSLRLSCAASGRTYAAYAMGWYRQAPGKERELVAAISIGGSTNYADSVKGRFTISRDNAKNTVYLLMNSLKPEDTAVYYCAAGTWAVSKYLEWLEFYYWGKGTQVTVSS”, the “polyreactivity (PSR sort gate)” value was “high polyreactivity”.

In the case of “QVQRVESGGGLVQAGGSLRLSCAASGRIFYFNAMGWYRQAPGKEWELVAVINSSGSTDYADSVKGRFTISRDNAKNTVYLQMNSLKPEDTAVYYCAAEVTPSGYGYWGQGTQVTVSS”, the “polyreactivity (PSR sort gate)” value is recorded as “low polyreactivity”.

In the case of “QVQLVESGGGLVQAGGSLRLSCAASGRIFVVYVMGWYRQAPGKERELVAAISYSTGSTYYADSVKGRFTISRDNAKNTVYLQMKSLKPEDTAVYYCAVAAARKSFVSRYYYWGQGTQVTVSS”, the “polyreactivity (PSR sort gate)” value is listed as “low polyreactivity”.

For “QVQLVESGGGLVQAGGSLRLSCAASGNTFVKYVIGWYRQAPGKEREYVAAITVRGNTYYADSVKGRFTISRDNAKNTVYLQMNSLKPEDTAVYYCAARIYYLYKDRRLGYYWGQGTQVTVSS”, the “polyreactivity (PSR sort gate)” value is on record as “high polyreactivity”.

For “QVQLVESGRGLVQAGGSLRLSCAASGSMFGKHVMGWYRQAPGKERELVAAISRSGGRTYYADSVKGRFTISRDNANNTVYLQMNTLKPEDTAVYYCAADGQPIGQQTYDYWGQGTQVTVSS”, the “polyreactivity (PSR sort gate)” value is given as “high polyreactivity”.

“QVQHVESGGGLVQAGCSLRLSCAASGLIFGLYAMGWFRPAPGKERELVAAISYRTDSTYADSVKGRFTISRDNAKNTVYLQMNSLKPEDNAVYYCAADLRVSVRYYYWGHGTQVTVSS”: the “polyreactivity (PSR sort gate)” value is “low polyreactivity”.

As for “QVQLVESGVGLVQAGRRLRLSCAASGFIFAWNGMGWYRKAPGKERELVAAISWSGGSTYYAVSVKGRFTISRDNEKNTVYLLMNTLKPEETAVYYCYRSWGSRPGSRLEYWGQGTQVTVSS”, the “polyreactivity (PSR sort gate)” value is given as “high polyreactivity”.

As to “QVHLVESGGGLVQAGGSLRLSCAASGRTFSRYPMGWYRQAPGKERELVAAIRGNSGNTYYAYSVKGRFTISRDNAKNTVYLQMNSLKPEDTAVYYCAKPFNIWGQGTQVTVSS”, the “polyreactivity (PSR sort gate)” value is given as “high polyreactivity”.

Turning to “QVQLVESGGGLVQAGGSLRLSCAASGTFKWYAMGWYRQAPGKERELVAVISSSGGTTYYADSVKGRFTISRDNAKNTVYLQMNSLKPEDTAVYYCNVVKRRSDWGMDYWGQGTQVTVSS”, the “polyreactivity (PSR sort gate)” value is listed as “high polyreactivity”.

Take “QVQLVESGGGLVQAGGSLRLSCAASGSTSLIYAMGWYRQAPGKERELVARISGSGGSTFYADSVKGRFTISRDNAKNTVFLQMNSLKPEDTAVYYCAAYIRGRRYNWATVGYNYWGQGTQVTVSS”: the “polyreactivity (PSR sort gate)” value is “high polyreactivity”.

For “QVQLVESGGGLVQAGGSLRLSCAASGSTFTANAMGWYRQAPGKERELVAAISDTTGNTYYADSVKGRFTISRDNAKNTVYLQMNSLKPEDTAVYYCAARQFKSDIVVSLVDSWGQGTHVTVSS”, the “polyreactivity (PSR sort gate)” value is recorded as “low polyreactivity”.

In the case of “QVQRVESWGGLVQAGGSLRLSCAASGSTFEYNAMGWNRQAPGKEREFVAAISRTGSRTYYADSVKGRFTISRDNAKNTVYLQMNSLKPEDTAVYYCARVKSRLQVGYYYWGQGTQVTVSS”, the “polyreactivity (PSR sort gate)” value is recorded as “high polyreactivity”.

With “QVQHEESGGGLVQAGGSLRLSCAASGLTFYPYAMGWYRQATGKESELVAGISASGGGTSYADSVKGRFTISRDNAKNTVYLQMNSLKPEDTAVYYCAATPTFFVWQGYNYWGQGTQVTVSS”, the “polyreactivity (PSR sort gate)” value is on record as “low polyreactivity”.

With “QVQLVESGGGLVQAGGSLRLSCAASGSTFYLYAMGWYRQAPGKERELVAAIRGGGITNYADSVKGRFTISRDNAKNTVYLQINSLKPEDTAVYYCAADSTLRGFDYWGQGTQVTVSS”, the “polyreactivity (PSR sort gate)” value was “high polyreactivity”.

Take “QGQLVESGGCLVQAGGSLRLSCDASGFIFTSYAMGWYRQAPGQEWELVAVITASGGSTYYADSVKGRFTISRDNAKNTVYLQMNSLKPEDTAVYYCNRYYQSYYGWTGPYGYWGQGTQVTVSS”: the “polyreactivity (PSR sort gate)” value was “high polyreactivity”.

In the case of “QVQLVETRGGLVQAGGSLRLTCAASGRTFEGYAMGWYRQAPGKEREFVAAITDGDSTYYADSVKGRFTISRDNAKNTVYLQMNSLKPEDTAVYYCAADRQTWYWYTAYLKYDYWGQGSQVTVSS”, the “polyreactivity (PSR sort gate)” value is “low polyreactivity”.

For “QVPLVESGGGLVQAGGSLRISCAASFRYNTMGWYRQAPGKERELVAAISGSGSRTYYADSVKGRFTISRDNAKITVYLQMNSLKPEDTAVFYCAALSYRNSEVGTSRGDYWGQGTQVTVSS”, the “polyreactivity (PSR sort gate)” value was “high polyreactivity”.

Take “QVQLVESGGGLVQAGGSLRLSCAASGFTFYRYAMGWYRQAPGKERELVAAISSGGRTTYADSVKGRFTISRDNAKNTVYLQMNSLKPEDTAVYYCVFVYVYDYYYWGQGTQVTVSS”: the “polyreactivity (PSR sort gate)” value was “high polyreactivity”.

As for “QVQLVESGGGLVQAGGSLRLSCAASGGIFPLYAMGWYRQAPGKERELVASITSGGSTYYADSVKGRFTISRDNAKNTVYLQMNSLKPEDTAVYYCAADLRITSYNSWGQGSQVTVSS”, the “polyreactivity (PSR sort gate)” value is on record as “low polyreactivity”.

Take “QVQLVESGGGLVQAGGRLRLSCAASGHIFWGYAMGWSRQAPGKERELVAAITSGGNTNYADSVKGRFTISRDNAKNTVYLQMNSLKPEDTAVYYCAKRTRPWRDFDYWGQGTQVTVSS”: the “polyreactivity (PSR sort gate)” value is listed as “low polyreactivity”.

“QVQLQESGGGLVQAGGSLRLSCAASGSNFKVVEMGLYRQAPAKDREFVATIGEGGNTYYADSVKGRFTISRDNAKNTVYLQMNSLKPEDTAVYFYAVVLGTSYRYTYWGQGTQVTVSS”: the “polyreactivity (PSR sort gate)” value is given as “low polyreactivity”.

Regarding “QVQLVESGGGLVQAGGSLRLSCAASGSTFPKYAMGWYRQAPGKERELVAAITFTGSSTYYADSVKGRFTISRDNAKNTVYLQMNSLKPEDTAVYYCNAVYYTGYYWGQGTQVTVSS”, the “polyreactivity (PSR sort gate)” value was “low polyreactivity”.

On to “QVQLVEAGGGLVQAGGSLRLIFASSGSTLYLYVMVWYRQAPGKESELVDVISSSSGRTYYADSVKGRFTISRDNAKNSVYLQMNSLKPEDTAVYYCAADNYVGYHWYNYWGQGTQVTVSS”, for which the “polyreactivity (PSR sort gate)” value was “high polyreactivity”.

Take “QVQLVESGGGLVQAGGSLRLSCAASGSTFYGYAMGWYRQAPGKERELVAVISRSGGGTSYADSVKGRFTISRDNAKNTVYLQMNSLKPEDTAVYYCNAAKYLYRHGFMSAGDMYYWGQGTQVTVSS”: the “polyreactivity (PSR sort gate)” value is given as “high polyreactivity”.

For “QVQLVESGGGLFQAGGSLRLSCAASGRIFGPYAMGWYRQAPGKERELVATITLRGGSTYYADSVKGRFTISRDNAKNTVYLQMNSLKPEDTAVYYCNARYYSLVYRYDYWGQGTQVTVSS”, the “polyreactivity (PSR sort gate)” value was “high polyreactivity”.

In the case of “QVQLVESGGGLVQAGGSLRLSCAASGSILASNAMGWYRQAPGKDRELVAAITTSGGSTYYADSVKGRFTISRHNAKNTVYLQMNSLKPEDTAVYYCNAEYWLGRWLRYGYWGQGTQVTVSS”, the “polyreactivity (PSR sort gate)” value is “high polyreactivity”.

With “QVQLVESGGCLVQAGGSLRLSCAASGYIFFINSMGWYRQAPGKERELVAAITRRGVSTYYADSVKGRFTISRDNAKNSVYLQMHSLKPEDTAVYYCATEHNHLGYYYWGQGTQVTVSS”, the “polyreactivity (PSR sort gate)” value is on record as “low polyreactivity”.

With “QVQLVESGGGLVQAGGSLRLSCAASGSIFNRYAMRWYRQAPGKERALVAAISRSGSTYYADSVKGRFTISRDNAKNTVYLQMNSLKPEDTAVYYCNARGTTHHTSYDYWGQGTQVTVSS”, the “polyreactivity (PSR sort gate)” value is on record as “low polyreactivity”.

As to “QVQLVESGGGLVQAGGSLRLSCAASGGIFSYYAMGWYRQAPGKEREFVAAIDWGGGSTYYADSVKGRFTISRDNAKNTVYFQMNSLKPEDTAVYYCAAEIYPIGWDDYDYWGQGTQVTVSS”, the “polyreactivity (PSR sort gate)” value is given as “low polyreactivity”.

The values above are taken from the nanobody polyreactivity screen of Harvey et al. (2022).
